Reference: the supplement of paper PMC9112550, “Optimization of the antimicrobial peptide Bac7 by deep mutational scanning” (BMC Biology, 2022)

System: Escherichia coli TOP10
Experiment: shrunken log2 fold change of peptide-encoding DNA abundance (4.5 h post-induction vs induction); higher = less antimicrobial activity (less host growth inhibition)
Details: time post-induction: 4.5 h; library: site-saturation at positions 5, 18, 19, 20
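Also: peptides expressed intracellularly from a pBAD plasmid library in pooled LB shake-flask culture, induced with 0.3% L-arabinose, DNA abundance read by NGS, three biological replicates, DESeq2 with apeglm shrinkage.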

Sequence | shrunken log2 fold change
RRIRFRPPRLPRPRPRPHRGPRP | 0.0928
RRIRFRPPRLPRPRPRPHVKPRP | -0.0318
RRIRFRPPRLPRPRPRPHWEPRP | -0.0104
RRIRFRPPRLPRPRPRPHWHPRP | -0.444
RRIRFRPPRLPRPRPRPICAPRP | 0.0631
RRIRFRPPRLPRPRPRPIDKPRP | -0.499
RRIRFRPPRLPRPRPRPIDRPRP | -0.0144
RRIRFRPPRLPRPRPRPIFYPRP | -0.0962
RRIRFRPPRLPRPRPRPIGEPRP | 0.0336
RRIRFRPPRLPRPRPRPIHTPRP | 0.0523
RRIRFRPPRLPRPRPRPIIGPRP | -0.024
RRIRFRPPRLPRPRPRPIIIPRP | -0.579
RRIRFRPPRLPRPRPRPIPFPRP | 2.3
RRIRFRPPRLPRPRPRPIQEPRP | -0.541
RRIRFRPPRLPRPRPRPIQIPRP | -0.234
RRIRFRPPRLPRPRPRPIQLPRP | -0.336
RRIRFRPPRLPRPRPRPIRDPRP | 0.0144
RRIRFRPPRLPRPRPRPIRQPRP | -0.297
RRIRFRPPRLPRPRPRPISEPRP | -0.0674
RRIRFRPPRLPRPRPRPISQPRP | -0.588
RRIRFRPPRLPRPRPRPIWVPRP | -0.107
RRIRFRPPRLPRPRPRPIYFPRP | -0.09
RRIRFRPPRLPRPRPRPIYRPRP | -0.122
RRIRFRPPRLPRPRPRPKAGPRP | 0.307
RRIRFRPPRLPRPRPRPKCQPRP | 0.274

Sequence | shrunken log2 fold change
RRIRFRPPRLPRPRPRPKDRPRP | 0.148
RRIRFRPPRLPRPRPRPKEQPRP | -0.00277
RRIRFRPPRLPRPRPRPKFDPRP | -0.0676
RRIRFRPPRLPRPRPRPKFEPRP | -0.081
RRIRFRPPRLPRPRPRPKGEPRP | 0.35
RRIRFRPPRLPRPRPRPKHFPRP | -0.0499
RRIRFRPPRLPRPRPRPKIMPRP | -0.624
RRIRFRPPRLPRPRPRPKKKPRP | -0.00928
RRIRFRPPRLPRPRPRPKLHPRP | -0.0553
RRIRFRPPRLPRPRPRPKLYPRP | -0.481
RRIRFRPPRLPRPRPRPKMCPRP | -0.487
RRIRFRPPRLPRPRPRPKPEPRP | 0.37
RRIRFRPPRLPRPRPRPKPPPRP | 1.35
RRIRFRPPRLPRPRPRPKQRPRP | 0.384
RRIRFRPPRLPRPRPRPKRIPRP | -0.442
RRIRFRPPRLPRPRPRPKSKPRP | -0.0737
RRIRFRPPRLPRPRPRPKSSPRP | -0.103
RRIRFRPPRLPRPRPRPKVIPRP | -0.212
RRIRFRPPRLPRPRPRPKVMPRP | -0.178
RRIRFRPPRLPRPRPRPKVRPRP | -0.022
RRIRFRPPRLPRPRPRPKVVPRP | 0.291
RRIRFRPPRLPRPRPRPKYFPRP | -0.758
RRIRFRPPRLPRPRPRPKYPPRP | -0.31
RRIRFRPPRLPRPRPRPLAAPRP | 0.315
RRIRFRPPRLPRPRPRPLACPRP | -0.162

Sequence | shrunken log2 fold change
RRIRFRPPRLPRPRPRPLCAPRP | -0.0266
RRIRFRPPRLPRPRPRPLDCPRP | -0.112
RRIRFRPPRLPRPRPRPLDQPRP | 0.0734
RRIRFRPPRLPRPRPRPLDVPRP | -0.153
RRIRFRPPRLPRPRPRPLEHPRP | 0.0403
RRIRFRPPRLPRPRPRPLENPRP | -0.0435
RRIRFRPPRLPRPRPRPLFGPRP | 0.0395
RRIRFRPPRLPRPRPRPLHKPRP | -0.179
RRIRFRPPRLPRPRPRPLHWPRP | 0.0916
RRIRFRPPRLPRPRPRPLIDPRP | -0.227
RRIRFRPPRLPRPRPRPLITPRP | -0.503
RRIRFRPPRLPRPRPRPLKGPRP | -0.128
RRIRFRPPRLPRPRPRPLLWPRP | 0.305
RRIRFRPPRLPRPRPRPLMLPRP | -0.282
RRIRFRPPRLPRPRPRPLMNPRP | -0.607
RRIRFRPPRLPRPRPRPLMRPRP | 0.278
RRIRFRPPRLPRPRPRPLNHPRP | -0.608
RRIRFRPPRLPRPRPRPLNKPRP | -0.522
RRIRFRPPRLPRPRPRPLNMPRP | -0.777
RRIRFRPPRLPRPRPRPLNNPRP | -0.767
RRIRFRPPRLPRPRPRPLNYPRP | -0.755
RRIRFRPPRLPRPRPRPLPHPRP | -0.0994
RRIRFRPPRLPRPRPRPLPIPRP | 0.165
RRIRFRPPRLPRPRPRPLRKPRP | 0.465
RRIRFRPPRLPRPRPRPLSAPRP | -0.039
